First the molecules themselves.
T1: TNFR60:Fc (human, UniProt P19438 30-211, limits assumed)
T1 construct: Previously described construct (Crowe 1994); also called TNFR:Fc; TNFR1-Fc; not shown: Fc region of human IgG1
T1 sequence (looked up): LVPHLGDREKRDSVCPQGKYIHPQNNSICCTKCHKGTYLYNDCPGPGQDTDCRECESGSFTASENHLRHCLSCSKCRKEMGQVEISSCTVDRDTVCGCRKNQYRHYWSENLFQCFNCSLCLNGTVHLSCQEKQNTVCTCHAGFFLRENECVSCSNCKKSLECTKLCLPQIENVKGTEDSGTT

T2: TNFR1 on normal human dermal fibroblasts (human, UniProt P19438 30-455)
T2 sequence (looked up): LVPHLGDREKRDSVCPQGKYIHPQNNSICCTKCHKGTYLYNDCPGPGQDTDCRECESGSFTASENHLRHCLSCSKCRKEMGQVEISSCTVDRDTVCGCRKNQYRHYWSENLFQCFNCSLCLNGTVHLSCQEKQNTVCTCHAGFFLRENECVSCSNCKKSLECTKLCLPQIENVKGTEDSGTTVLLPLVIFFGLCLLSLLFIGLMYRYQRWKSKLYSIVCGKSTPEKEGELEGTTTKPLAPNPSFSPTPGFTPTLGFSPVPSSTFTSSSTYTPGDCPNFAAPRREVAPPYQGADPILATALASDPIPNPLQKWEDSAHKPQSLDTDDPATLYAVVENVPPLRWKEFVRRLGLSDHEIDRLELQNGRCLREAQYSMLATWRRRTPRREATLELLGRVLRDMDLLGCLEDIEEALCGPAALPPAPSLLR

T3: LTα1β2 complex from II-23.D7 cells (human, UniProt P01374 35-205; Q06643 1-244)
T3 construct: also called LTβ (33 kDa) and LTα (23-25 kDa) complex
T3 sequence (looked up) 1: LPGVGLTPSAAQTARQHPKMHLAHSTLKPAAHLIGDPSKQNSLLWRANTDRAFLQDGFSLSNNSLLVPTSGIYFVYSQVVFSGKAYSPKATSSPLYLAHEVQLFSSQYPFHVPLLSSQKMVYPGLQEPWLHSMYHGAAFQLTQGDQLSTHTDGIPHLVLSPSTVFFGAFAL
T3 sequence (looked up) 2: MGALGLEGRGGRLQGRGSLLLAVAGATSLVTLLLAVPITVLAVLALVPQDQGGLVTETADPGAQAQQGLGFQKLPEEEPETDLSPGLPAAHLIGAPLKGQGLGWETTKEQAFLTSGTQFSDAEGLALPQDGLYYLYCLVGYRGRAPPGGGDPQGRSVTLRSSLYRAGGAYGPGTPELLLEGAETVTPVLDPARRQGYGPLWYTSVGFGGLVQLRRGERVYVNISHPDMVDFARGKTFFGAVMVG

B1: human HVEM:Fc (Fc of human IgG1) (Fc fusion, UniProt Q92956 39-184, looked up)
chain: LPSCKEDEYPVGSECCPKCSPGYRVKEACGELTGTVCEPCPPGTYIAHLNGLSKCLQCQMCDPAMGLRASRNCSRTENAVCGCSPGHFCIVQDGDHCAACRAYATSSPGQRVQKGGTESQDTLCQNCPPGTFSPNGTLEECQHQTK
notes: range 1-184; Bivalent chimeric protein made with baculovirus vector pVL1392; also called huHVEM:Fc; hu HVEM:Fc; not shown: Fc region of human IgG1
B2: p30 (LIGHT), the cell surface HVEM ligand of activated II-23.D7 cells and human T cells (ligand)
chain: MEESVVRPSVFVVDGQTDIPFTRLGRSHRRQSCSVARVGLGLLLLLMGAGLAWQGWFLLQLHWRLGEMVTRLPDGPAGSWEQLIQERRSHEVNPAAHLTGANSSLTGSGGPLLWETQLGLAFLRGLSYHDGALVVTKAGYYYIYSKVQLGGVGCPLGLASTITHGLYKRTPRYPEELELLVSQQSPCGRATSSSRVWWDSSFLGGVVHLEAGEEVVVRVLDERLVRLRDGTRSYFGAFMV
notes: see m1; also called 30 kDa protein; cell surface ligand for HVEM
B3: LTα homotrimer (ligand, UniProt P01374 35-205, looked up)
chain: T3 sequence (looked up) 1
B4: LIGHTt66-FLAG (ligand, not shown: small tags and cut ends)
chain: EMVTRLPDGPAGSWEQLIQERRSHEVNPAAHLTGANSSLTGSGGPLLWETQLGLAFLRGLSYHDGALVVTKAGYYYIYSKVQLGGVGCPLGLASTITHGLYKRTPRYPEELELLVSQQSPCGRATSSSRVWWDSSFLGGVVHLEAGEEVVVRVLDERLVRLRDGTRSYFGAFMV
notes: also called soluble homotrimeric LIGHT; recombinant soluble LIGHT
B5: LIGHT t66 G119E (ligand, not shown: small tags and cut ends)
chain: B4 chain with G53E
notes: FLAG-tagged point mutant from transiently transfected 293T cells, homotrimer; also called LIGHTG119E; LIGHT-G119E
B6: LIGHT t66 Q117T (ligand, not shown: small tags and cut ends)
chain: B4 chain with Q51T
notes: FLAG-tagged point mutant from transiently transfected 293T cells, homotrimer; also called Q11TT
B7: LIGHT t66 Y173F (ligand, not shown: small tags and cut ends)
chain: B4 chain with Y107F
notes: FLAG-tagged point mutant from transiently transfected 293T cells, homotrimer
B8: LIGHT t66 L120Q (ligand, not shown: small tags and cut ends)
chain: B4 chain with L54Q
notes: FLAG-tagged point mutant from transiently transfected 293T cells, homotrimer; also called L12OQ
B9: murine LTβR:Fc (Fc fusion, mouse, UniProt P50284 31-221, looked up)
chain: QLVPPYRIENQTCWDQDKEYYEPMHDVCCSRCPPGEFVFAVCSRSQDTVCKTCPHNSYNEHWNHLSTCQLCRPCDIVLGFEEVAPCTSDRKAECRCQPGMSCVYLDNECVHCEEERLVLCQPGTEAEVTDEIMDTDVNCVPCKPGHFQNTSSPRARCQPHTRCEIQGLVEAAPGTSYSDTICKNPPEPGAM
notes: range 1-221; Encoded range includes the signal peptide; also called muLTβR:Fc; mouse LTβR:Fc; not shown: Fc region; human IgG1 by the opening sentence of the paragraph, not restated for this construct

The target of experiment [1] is B3. Briefly: precipitation of 35S-labelled proteins with receptor:Fc and protein G, SDS-PAGE.
Experiment [2] has as its target TNF (UniProt P01375 77-233). The experiment can be described thus: precipitation of 35S-labelled secreted proteins of activated II-23.D7 cells with receptor:Fc 10 µg/ml and protein G, SDS-PAGE.
Experimental: (§1) The culture supernatants were harvested and the cells lysed in buffer containing 2% NP40, HEPES pH7.0, 20 mM EDTA, 150 mM NaCl with leupeptin and aprotinin (at 10 μg/ml), PMSF (1 mM) and iodoacetamide (20 mM). The extract was precleared with human IgG (10 μg), where indicated, anti-LT antibodies and protein G beads. The receptor:Fc fusion proteins (10 μg/ml) were then added to the samples and precipitated with protein G beads. Labeled proteins were analyzed by reducing SDS-PAGE and phosphoimage (pixel range 6-200).
The target in experiment [3] is B2. The experiment can be described thus: flow cytometry, graded HVEM:Fc on activated II-23.D7 cells. (In flow cytometry, cells or beads pass a laser one at a time.)
Experimental: II-23.D7 cells were activated for 4 hours at 37° C. with phorbol myristate acetate (PMA) (100 ng/ml), or PMA (100 ng/ml) and ionomycin (1 μg/ml). […] Stained cells were analyzed by flow cytometry (FACSCaliber, Becton-Dickenson). Receptor binding was determined by calculating the fluorescence intensity=(mean fluorescent channel) (% positive fluorescent events), where a positive event has a fluorescence value >98% of the value for normal IgG. Specific fluorescence intensity represents the fluorescence intensity after subtraction of the value for control IgG. Each histogram represents 10₄ events.
The target of experiment [4] is T1, TNFR60:Fc. Briefly: precipitation from detergent extracts of activated II-23.D7 cells, SDS-PAGE and 2D electrophoresis.
Experimental: as §1
II-23.D7 cells were activated with PMA (100 ng/ml) or PMA and ionomycin (1 μg/ml) for 2.5 hours, followed by labeling with ³⁵S-methionine and -cysteine as in the above two paragraphs. Cell extracts were pre-cleared with human IgG (5 μg) and protein G beads to remove nonspecifically binding proteins. […] In each case, the beads were washed three times to remove the contaminating proteins in the non-bound fraction.
The target in experiment [5] is T2, TNFR1 on normal human dermal fibroblasts. Briefly: cell-based or functional assay.
Experiment [6] deals with T4, murine HVEM:Fc (mouse; human, UniProt Q80WM9 39-205; P01857 99-330 = IgG part).
T4 construct: range 1-205;domain: Fc region; Produced in TN5 insect cells, protein A purified, 58 kDa reduced; Encoded range includes the signal peptide; also called muHVEM:Fc; mouse HVEM:Fc
T4 sequence (Q80WM9 other isoform, or with tags, fused parts or gaps): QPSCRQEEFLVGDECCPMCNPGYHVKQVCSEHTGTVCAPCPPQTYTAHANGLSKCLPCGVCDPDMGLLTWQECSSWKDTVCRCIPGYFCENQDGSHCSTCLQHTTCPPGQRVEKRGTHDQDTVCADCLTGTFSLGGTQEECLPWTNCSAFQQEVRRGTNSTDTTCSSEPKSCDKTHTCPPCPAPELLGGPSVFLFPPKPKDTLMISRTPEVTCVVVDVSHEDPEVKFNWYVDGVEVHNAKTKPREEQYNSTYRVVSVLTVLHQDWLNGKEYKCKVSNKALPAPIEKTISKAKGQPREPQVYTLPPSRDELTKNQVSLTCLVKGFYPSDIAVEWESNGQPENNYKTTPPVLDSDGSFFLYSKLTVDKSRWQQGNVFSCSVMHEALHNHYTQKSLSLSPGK
Briefly: ELISA, plate-bound receptor:Fc, M2 anti-FLAG detection. (ELISA stands for enzyme-linked immunosorbent assay.)
Experimental: (§2) After washing with PBS/0.5% Tween, samples were applied diluted in PBS/3% BSA and incubated for 1 h at RT. After washing wells were incubated with monoclonal anti-FLAG (M2) (10 μg/ml in PBS/BSA) for 1 h at RT, washed and incubated with goat anti-mouse HRP (1:5000) for 1 hr at RT. […] The OD was measured at 415 nm in a SpectraMax plate reader (Molecular Devices Corp., Sunnyvale, Calif.).

Experiment [7] concerns the target B9. The experiment is described as above.
Experimental: as §2
For experiment [8], the target named is LTβR (whole, in cells) (human, UniProt P36941 31-435). Briefly: cell-based or functional assay.
In experiment [9] the target is B1. The experiment can be described thus: SPR (BIAcore 1000), receptor:Fc amine-coupled to CM5 chip, LIGHT as analyte 100-500 nM, 25 C.
Experimental: (§3) The sensor surface was equilibrated with PBS (20 mM sodium phosphate/150 mM NaCl, pH 7.4) and sensorgrams were collected at 25° C. and a flow rate of 5 μl/min. […] The sensor surface was regenerated after each cycle with a 10 μl pulse of 10 mM glycine pH 2.0. Sets of 5 analyte concentrations, 100 to 500 nM were collected, and analyzed by nonlinear regression using the BIlAevaluation software (2.1)™. Association and dissociation data were fitted on the basis of the simple AB⇄A+B model.
Experiment [10] has as its target T5, human LTβR:Fc (human, UniProt P36941 31-227, limits assumed).
T5 construct: Bivalent chimeric protein, previously described; also called huLTβR:Fc; hu LTβR:Fc; not shown: Fc region of human IgG1
The experiment is described as above.

The target of experiment [11] is T5, human LTβR:Fc. Briefly: SPR (BIAcore 1000), receptor:Fc amine-coupled to CM5 chip, LIGHT mutant as analyte.
Experimental: as §3
For experiment [12], the target named is B1. Briefly: SPR.
Experimental: as §3
In experiment [13] the target is B1. The experiment can be described thus: ELISA, plate-bound receptor:Fc, M2 anti-FLAG detection.
Experimental: as §2
The target in experiment [14] is T3, LTα1β2 complex from II-23.D7 cells. The experiment can be described thus: 2D electrophoresis of proteins bound to murine LTβR:Fc, FIG. 4A.

Where a chain is given by its changes, count along the chain named. Numbers in names are those of the source.

T5 sequence (P36941 31-227 limits assumed): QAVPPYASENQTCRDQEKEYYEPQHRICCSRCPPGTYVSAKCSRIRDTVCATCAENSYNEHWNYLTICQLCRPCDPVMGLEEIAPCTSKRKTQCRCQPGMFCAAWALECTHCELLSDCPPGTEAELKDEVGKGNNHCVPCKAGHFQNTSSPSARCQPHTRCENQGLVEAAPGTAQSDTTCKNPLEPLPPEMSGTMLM
Chain of TNF (P01375 77-233 limits assumed): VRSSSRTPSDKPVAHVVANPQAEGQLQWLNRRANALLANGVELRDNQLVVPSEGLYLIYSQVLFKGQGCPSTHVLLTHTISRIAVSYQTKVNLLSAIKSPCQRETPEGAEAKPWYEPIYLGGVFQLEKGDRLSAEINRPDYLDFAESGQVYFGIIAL

As usually defined, the EC50 is the concentration giving half of the maximal effect. Turning to B1, the values for the binding result in experiment [1] and in [2] were “binds” and “no binding”, respectively. The molecule also gave a half-maximal effective concentration (EC50) in experiment [3] of approximately 20 nM.
Consider B2, for which the binding result in experiment [4] is listed as “no binding”.
Regarding B3, in experiment [5], the “IC50 for inhibition of HCMV pp28 expression (western blot)” value is approximately 0.01 nM; the “anti-viral activity against LTα1β2 and LIGHT (pp28 expression)” value was not below 40 fold.
Broadly, the Kd is the constant that tells how readily two partners part at equilibrium. Read a high Kd as lower affinity. As a reminder, the koff is the rate constant with which the complex falls apart. Low readings indicate slow dissociation, high ones fast dissociation. As usually defined, the kon is the second-order rate constant of association. Take B4: the “fold lower affinity than for the human receptor” value in [6] was determined as 10 fold. In addition, the “fold lower affinity than for the human receptor” value in experiment [7] came to 10 fold. For the same molecule, in experiment [8], the “IC50 for inhibition of HCMV pp28 expression (western blot)” value was approximately 0.4 nM and the “up-regulation of ICAM expression by NHDF cells (flow cytometry, 36 h, 5 nM)” value was determined as 4 fold. Moreover, in experiment [9], binding was characterised by a dissociation constant (Kd) of 3.9 nM, the koff stood at 4.8e-05 s⁻¹ and the kon is 12000 M⁻¹ s⁻¹. For the same molecule, in experiment [10], the Kd worked out at 4.5 nM, the koff turned out to be 0.00012 s⁻¹ and the association rate constant (kon) was determined as 27000 M⁻¹ s⁻¹.
On to B5, for which the binding result in experiment [11] is “no binding (tested: 100 to 500 nM)”. Moreover, the binding result in [6] is “no binding”. Moreover, the binding result in experiment [7] is listed as “no binding”. Besides, in experiment [8], the “up-regulation of ICAM expression by NHDF cells (flow cytometry, 36 h, 20 nM)” value was less than 1.5 fold. Besides, in experiment [12], the “fold lower affinity than LIGHT t66” value is approximately 30 fold. In experiment [9], this molecule registered a dissociation constant (Kd) of 114 nM, a dissociation rate constant (koff) of 0.002 s⁻¹ and an association rate constant (kon) of 18000 M⁻¹ s⁻¹.
As for B6, in [9], binding was characterised by a dissociation constant (Kd) of 0.3 nM, the koff was found to be 5e-06 s⁻¹ and the association rate constant (kon) was 20000 M⁻¹ s⁻¹. In [10], binding was characterised by a dissociation constant (Kd) of 1.5 nM, the koff is 4.5e-05 s⁻¹ and the kon stood at 32000 M⁻¹ s⁻¹.
Consider B7, for which the binding result in [6] is recorded as “no binding”. Further, in [7], the binding result is on record as “no binding”. Besides, in experiment [8], the “up-regulation of ICAM expression by NHDF cells (flow cytometry, 36 h, 20 nM)” value was 2.5 fold. Besides, in experiment [12], binding was characterised by a dissociation constant (Kd) of 180 nM and the “fold lower affinity than LIGHT t66” value was more than 40 fold. In addition, in experiment [9], the Kd was 173 nM, the koff stood at 0.0033 s⁻¹ and the kon was 19000 M⁻¹ s⁻¹. Moreover, in experiment [10], the dissociation constant Kd turned out to be 31 nM, the dissociation rate constant (koff) is 0.0011 s⁻¹ and the on-rate constant (kon) stood at 37000 M⁻¹ s⁻¹.
For B8, the binding result in experiment [13] and in experiment [7] was “binds” in each case.
For B9, in [14], the binding result is recorded as “binds”.

These data come from patent US20110171242A1 (published 2011).
